Measurements: the supplement of paper PMC10724198
± gives the standard deviation of the averaged measurements.

Columns and labels:
Saccharomyces cerevisiae [1] = test: protein stability index of tFT-peptide fusion (C-terminal peptide) (PSI (0-1 scale)); higher = more stable (slower turnover)
Method: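 MPS profiling in S. cerevisiae of the tFT-X12 degron library: putative degron peptides plus stable controls, 12 aa, fused to the C-terminus of a sfGFP-mCherry timer. Cells are FACS-sorted into 8 mCherry/sfGFP bins and deep-sequenced. PSI runs from 0 (unstable) to 1 (stable). Backgrounds are wild type, das1Δ and doa10Δ at 30 °C, and wild type, das1Δ, cdc34-1 and cdc53-1 at 37 °C; 2-3 technical replicates each.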

Saccharomyces cerevisiae [2] = test: as above; details: genetic background: wild type; temperature: 30 C
[3] = genetic background: cdc34-1, temperature: 37 C
[4] = genetic background: cdc53-1, temperature: 37 C
[5] = genetic background: das1 deletion, temperature: 30 C
[6] = genetic background: das1 deletion, temperature: 37 C
[7] = genetic background: doa10 deletion, temperature: 30 C
[8] = genetic background: wild type, temperature: 30 C
[9] = genetic background: wild type, temperature: 37 C
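Note: PSI is a weighted mean of sequencing reads over stability bins, variants kept only with over 10 reads, mCherry proximal and sfGFP distal, peptide attached via GGGS linker.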

Row | Sequence | protein stability index (Saccharomyces cerevisiae [1]; [3]) | protein stability index (Saccharomyces cerevisiae [1]; [4]) | protein stability index (Saccharomyces cerevisiae [1]; [5]) | protein stability index (Saccharomyces cerevisiae [1]; [6]) | protein stability index (Saccharomyces cerevisiae [1]; [7]) | protein stability index (Saccharomyces cerevisiae [1]; [8]) | protein stability index (Saccharomyces cerevisiae [1]; [9]) | protein stability index (Saccharomyces cerevisiae [2])
1 | FRDRFLRWNLVS | 0.481 ± 0.073 | 0.676 ± 0.013 | 0.6489 ± 0.0058 | 0.757 ± 0.025 | 0.129 ± 0.026 | 0.14 ± 0.025 | 0.21 ± 0.02 | 0.223 ± 0.022
2 | FRVFYSFLLCLS | 0.194 ± 0.0057 | 0.189 ± 0.01 | 0.228 ± 0.015 | 0.307 ± 0.0087 | 0.178 ± 0.0048 | 0.162 ± 0.0088 | 0.219 ± 0.0085 | 0.22 ± 0.0028
3 | FRVILISACESV | 0.565 ± 0.016 | 0.582 ± 0.011 | 0.403 ± 0.032 | 0.5562 ± 0.0034 | 0.384 ± 0.032 | 0.397 ± 0.019 | 0.5385 ± 0.004 | 0.464 ± 0.0071
4 | FSFPAFTFIVSI | 0.352 ± 0.03 | 0.346 ± 0.006 | 0.336 ± 0.024 | 0.475 ± 0.024 | 0.502 ± 0.031 | 0.329 ± 0.0099 | 0.447 ± 0.035 | 0.4357 ± 0.0022
5 | FSICGFYSLCFG | 0.569 ± 0.028 | 0.617 ± 0.019 | 0.503 ± 0.021 | 0.628 ± 0.013 | 0.4968 ± 0.0046 | 0.512 ± 0.0077 | 0.599 ± 0.023 | 0.492 ± 0.045
6 | FSLLFVRFCFFL | 0.2674 ± 0.00097 | 0.323 ± 0.0039 | 0.256 ± 0.037 | 0.4195 ± 0.0026 | 0.227 ± 0.0074 | 0.248 ± 0.039 | 0.3372 ± 0.0022 | 0.305 ± 0.037
7 | FSLLLSLSLFHC | 0.547 ± 0.053 | 0.555 ± 0.018 | 0.534 ± 0.0069 | 0.549 ± 0.006 | 0.183 ± 0.0059 | 0.2 ± 0.025 | 0.356 ± 0.0068 | 0.31 ± 0.015
8 | FSVLVVYTRLFQ | 0.427 ± 0.064 | 0.452 ± 0.033 | 0.332 ± 0.042 | 0.558 ± 0.013 | 0.306 ± 0.011 | 0.321 ± 0.033 | 0.508 ± 0.012 | 0.414 ± 0.091
9 | FTEFWFFKQMSV | 0.579 ± 0.019 | 0.761 ± 0.015 | 0.618 ± 0.031 | 0.7757 ± 0.0069 | 0.11 ± 0.01 | 0.126 ± 0.022 | 0.137 ± 0.04 | 0.171 ± 0.016
10 | FTRWLVYCTPLC | 0.554 ± 0.033 | 0.569 ± 0.0098 | 0.46 ± 0.011 | 0.586 ± 0.0022 | 0.437 ± 0.029 | 0.441 ± 0.012 | 0.567 ± 0.013 | 0.516 ± 0.024
11 | FVFFRFSLLFFF | 0.332 ± 0.022 | 0.344 ± 0.04 | 0.331 ± 0.029 | 0.449 ± 0.0046 | 0.269 ± 0.0034 | 0.225 ± 0.027 | 0.356 ± 0.014 | 0.337 ± 0.049
12 | FVSVAGFIVVVV | 0.47 ± 0.018 | 0.488 ± 0.036 | 0.293 ± 0.048 | 0.5341 ± 0.0027 | 0.291 ± 0.013 | 0.28 ± 0.034 | 0.498 ± 0.0068 | 0.4076 ± 0.00077
13 | FVVGFVCSMVWG | 0.0975 ± 0.012 | 0.216 ± 0.024 | 0.0889 ± 0.026 | 0.252 ± 0.0045 | 0.0599 ± 0.0055 | 0.0702 ± 0.019 | 0.2266 ± 0.0022 | 0.144 ± 0.016
14 | FVVHPARYYLVL | 0.558 ± 0.077 | 0.682 ± 0.019 | 0.595 ± 0.023 | 0.664 ± 0.017 | 0.355 ± 0.0048 | 0.385 ± 0.02 | 0.489 ± 0.014 | 0.4265 ± 0.0029
15 | FVVSCLSWVFLF | 0.429 ± 0.0099 | 0.528 ± 0.04 | 0.434 ± 0.032 | 0.5418 ± 0.004 | 0.101 ± 0.022 | 0.114 ± 0.025 | 0.127 ± 0.026 | 0.175 ± 0.024
16 | FVVWKDVLVMVR | 0.132 ± 0.03 | 0.1451 ± 0.00045 | 0.2 ± 0.032 | 0.286 ± 0.0095 | 0.158 ± 0.0054 | 0.192 ± 0.034 | 0.257 ± 0.0093 | 0.298 ± 0.029
17 | FWCVFVFFVCVG | 0.255 ± 0.042 | 0.354 ± 0.006 | 0.258 ± 0.028 | 0.399 ± 0.013 | 0.231 ± 0.0025 | 0.238 ± 0.023 | 0.349 ± 0.017 | 0.275 ± 0.01
18 | FWGRAGVWRLKG | 0.684 ± 0.044 | 0.759 ± 0.019 | 0.651 ± 0.021 | 0.7821 ± 0.0066 | 0.228 ± 0.0067 | 0.276 ± 0.026 | 0.595 ± 0.022 | 0.334 ± 0.025
19 | FWSARAVVWWCW | 0.506 ± 0.036 | 0.554 ± 0.026 | 0.445 ± 0.021 | 0.567 ± 0.011 | 0.449 ± 0.012 | 0.449 ± 0.027 | 0.574 ± 0.039 | 0.477 ± 0.051
20 | FYFRSSFFTICF | 0.36 ± 0.038 | 0.3875 ± 0.0025 | 0.365 ± 0.033 | 0.46 ± 0.0018 | 0.4318 ± 0.0037 | 0.352 ± 0.014 | 0.446 ± 0.017 | 0.398 ± 0.024

Row | Sequence | protein stability index (Saccharomyces cerevisiae [1]; [3]) | protein stability index (Saccharomyces cerevisiae [1]; [4]) | protein stability index (Saccharomyces cerevisiae [1]; [5]) | protein stability index (Saccharomyces cerevisiae [1]; [6]) | protein stability index (Saccharomyces cerevisiae [1]; [7]) | protein stability index (Saccharomyces cerevisiae [1]; [8]) | protein stability index (Saccharomyces cerevisiae [1]; [9]) | protein stability index (Saccharomyces cerevisiae [2])
21 | FYPLPASIPDFA | 0.695 ± 0.025 | 0.7541 ± 0.0025 | 0.67 ± 0.017 | 0.74197 ± 5.2e-05 | 0.675 ± 0.022 | 0.6686 ± 0.0026 | 0.72 ± 0.011 | 0.7216 ± 0.0018
22 | FYSLVQAWSKAP | 0.721 ± 0.037 | 0.715 ± 0.01 | 0.648 ± 0.012 | 0.727 ± 0.021 | 0.3898 ± 0.0019 | 0.415 ± 0.027 | 0.627 ± 0.018 | 0.501 ± 0.018
23 | GCGWVFWVVDWG | 0.463 ± 0.017 | 0.566 ± 0.0098 | 0.402 ± 0.028 | 0.563 ± 0.0075 | 0.369 ± 0.01 | 0.398 ± 0.027 | 0.539 ± 0.026 | 0.4431 ± 0.0038
24 | GCVMSVCSLAVS | 0.605 ± 0.019 | 0.624 ± 0.0098 | 0.45 ± 0.027 | 0.5659 ± 0.0049 | 0.453 ± 0.025 | 0.458 ± 0.011 | 0.54537 ± 2.2e-05 | 0.486 ± 0.013
25 | GCYWPKTLGILC | 0.546 ± 0.018 | 0.555 ± 0.02 | 0.408 ± 0.021 | 0.568 ± 0.0092 | 0.346 ± 0.0062 | 0.378 ± 0.025 | 0.56 ± 0.032 | 0.465 ± 0.004
26 | GGFLLRGLFLFL | 0.613 ± 0.032 | 0.652 ± 0.016 | 0.55 ± 0.024 | 0.6623 ± 0.0034 | 0.542 ± 0.025 | 0.52 ± 0.022 | 0.63 ± 0.015 | 0.525 ± 0.049
27 | GGHGGRRRKGVG | 0.36 ± 0.017 | 0.45 ± 0.0053 | 0.414 ± 0.019 | 0.435 ± 0.0098 | 0.409 ± 0.0082 | 0.381 ± 0.0054 | 0.439 ± 0.013 | 0.41 ± 0.046
28 | GGMVRSCLWCFV | 0.675 ± 0.034 | 0.755 ± 0.014 | 0.6 ± 0.011 | 0.754 ± 0.029 | 0.322 ± 0.011 | 0.357 ± 0.018 | 0.585 ± 0.0078 | 0.432 ± 0.01
29 | GGSHVWKFYRNF | 0.702 ± 0.09 | 0.7673 ± 0.0011 | 0.662 ± 0.031 | 0.767 ± 0.034 | 0.224 ± 0.0086 | 0.285 ± 0.027 | 0.5523 ± 0.0027 | 0.4225 ± 0.0038
30 | GGVFYVFFVFVG | 0.19 ± 0.016 | 0.39 ± 0.016 | 0.246 ± 0.024 | 0.425 ± 0.013 | 0.128 ± 0.0049 | 0.153 ± 0.023 | 0.258 ± 0.013 | 0.195 ± 0.0076
31 | GGVVAACRGGIG | 0.319 ± 0.011 | 0.3862 ± 0.0037 | 0.351 ± 0.017 | 0.394 ± 0.0076 | 0.361 ± 0.022 | 0.348 ± 0.01 | 0.374 ± 0.0091 | 0.346 ± 0.04
32 | GGVWSAFAVWVC | 0.188 ± 0.0039 | 0.338 ± 0.027 | 0.288 ± 0.025 | 0.446 ± 0.0074 | 0.0761 ± 0.0025 | 0.0784 ± 0.013 | 0.0546 ± 0.014 | 0.133 ± 0.0023
33 | GGWGSSLGVWVG | 0.663 ± 0.026 | 0.7542 ± 0.0024 | 0.644 ± 0.018 | 0.7674 ± 0.0045 | 0.178 ± 0.017 | 0.217 ± 0.015 | 0.4022 ± 0.0038 | 0.253 ± 0.011
34 | GIANHAMVIVVL | 0.444 ± 0.011 | 0.469 ± 0.0052 | 0.322 ± 0.037 | 0.508 ± 0.0078 | 0.278 ± 0.0066 | 0.312 ± 0.017 | 0.468 ± 0.033 | 0.404 ± 0.04
35 | GIPVRRLLFLVA | 0.419 ± 0.0098 | 0.478 ± 0.013 | 0.335 ± 0.033 | 0.5019 ± 0.0023 | 0.145 ± 0.0062 | 0.17 ± 0.024 | 0.311 ± 0.021 | 0.292 ± 0.051
36 | GKWVWSSFVWFG | 0.457 ± 0.033 | 0.541 ± 0.011 | 0.509 ± 0.023 | 0.674 ± 0.03 | 0.0899 ± 0.0064 | 0.0965 ± 0.021 | 0.0945 ± 0.0042 | 0.19 ± 0.0062
37 | GLFCCFLCLSVF | 0.241 ± 0.0047 | 0.297 ± 0.018 | 0.241 ± 0.041 | 0.343 ± 0.015 | 0.2 ± 0.004 | 0.204 ± 0.026 | 0.275 ± 0.017 | 0.261 ± 0.015
38 | GLFVGCWVFLVL | 0.344 ± 0.0095 | 0.445 ± 0.0049 | 0.307 ± 0.044 | 0.525 ± 0.012 | 0.294 ± 0.0069 | 0.297 ± 0.037 | 0.486 ± 0.015 | 0.387 ± 0.061
39 | GLIICRRCLWCC | 0.49 ± 0.01 | 0.527 ± 0.029 | 0.36 ± 0.031 | 0.5909 ± 0.00095 | 0.1721 ± 0.00088 | 0.182 ± 0.021 | 0.255 ± 0.01 | 0.267 ± 0.05
